Experimental data reported in the RNAGym collection of RNA variant scans (doi:10.1073/pnas.2313332121).
Fewer inactive variants are shown than the library holds.

B1: TPR 5TU (parent)
chain: GGAUCUUCUCGAUCUAACAAAAAAGACAAAUCUGCCACAAAGCUUGAGAGCAUCUUCGGAUGCAGAGGCGGCAGCCUUCGGUGGCGCGAUAGCGCCAACGUUCUCAACUAUGACACGCAAAACGCGUGCUCCGUUGAAUGGAGUUUAUCAUG

Variants of: B1
Test: polymerase ribozyme fitness, log enrichment relative to wild type (log ratio); higher = more active; in vitro selection for triplet polymerase activity
Procedure, shortened: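 Each subunit of a heterodimeric triplet polymerase ribozyme was represented by a PCR-built, transcribed mutant library that underwent triplicate single-round in vitro selection with frozen incubation at −7 °C. Extended constructs were recovered by gel excision, streptavidin-bead capture and RT-PCR, and Illumina sequencing of input and output libraries kept genotypes with ≥10 input reads and ≥1 read per output. Fitness is the logarithm of genotype enrichment relative to wild-type enrichment, from inverse-variance-weighted replicate averages, with a logarithm base of 2.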

| Variant | polymerase ribozyme fitness (log ratio) |
| --- | --- |
| G50A C125U | -1.35 |
| A49U U82G | -0.129 |
| G50A U56G C85U A115C U144G | -2.74 |
| G50A U53A A91U G124A C131G A137C | ≤ -4.2 |
| G50A C95U C116U | -1.99 |
| G50A U55A G70A G83C U101A U104A C105G G124U | ≤ -4.2 |
| G50A C85G | -3.34 |
| G50A G58C C76U C85G G141U | -4.1 |
| G50A G94U C116G | -1.85 |
| G50A A150U | -1.41 |
| G50A G141C | -1.77 |
| A49U C96G | -0.972 |
| G50A G94C C95G U144C | ≤ -4.2 |
| G50A C87U A97U | -3.34 |
| G50C A91G | -4 |
| A49U U56A C99G A147G | ≤ -4.2 |
| G50A A91U | ≤ -4.2 |
| G50A A110G | -3.88 |
| G50A C95G | -3.01 |
| G50A C95U | -2.44 |
| G50A U145C | -0.761 |

| Variant | polymerase ribozyme fitness (log ratio) |
| --- | --- |
| G50A U55A C95A | -1.86 |
| A49U G58A U102G A122U | -0.217 |
| G50A C54U C85U C93U G94U G117A | -3.95 |
| G50A G65A A89U U101A A106C | -4.2 |
| G50C A52C U55A G86A | -3.95 |
| G50C A52C U56C C96U A107U | ≤ -4.2 |
| G50A A60C G86A | -3.81 |
| G50A G143C | -3.85 |
| G50A C51U G74C U82C G140A U146G | ≤ -4.2 |
| G50A C93G G124A C125U G133A U135G A150G | ≤ -4.2 |
| A49U G58C | -0.846 |
| G50A U55A C87G C103U C116G | ≤ -4.2 |
| G50A G86A | -3.01 |
| G50A G86U | -3.78 |
| G50C C51U G92U | -2.09 |
| A49U G50A G84A C95G U146C | -1.2 |
| G50C C51G A52U C76U G84U C105U C114U G133A | ≤ -4.2 |
| G50C A52G C57U C93A | ≤ -4.2 |
| G50A A52C G81C | -2.82 |
| G50A G84U | -1.58 |
| G50A G84A | -2.43 |

| Variant | polymerase ribozyme fitness (log ratio) |
| --- | --- |
| G50A A52C | -3.13 |
| G50A C51U U55A G84A C87A C93A C108U G140C U146C | ≤ -4.2 |
| A49U U56G G81A G94A U146G | ≤ -4.2 |
| G50A G92A A106G | ≤ -4.2 |
| G50A A91U G100U C125A | ≤ -4.2 |
| G50A U56C | -1.2 |
| G50A U56A | -1.5 |
| G50A G58C C99A | ≤ -4.2 |
| G50C A52C C54U G88A C96G | ≤ -4.2 |
| G50A G71C U82G C85G | ≤ -4.2 |
| G50A U53C U56A A91U G94C A142C | ≤ -4.2 |
| G50A C93U G152A | -3.09 |
| G50A A97G A138C | -4.01 |
| G50A C57A C85A A91C A98C A121U G128U U135G A142U G143A | ≤ -4.2 |
| G50A G65A C85U | -3.49 |
| G50A G83C U146G | -2.55 |
| A49U G80A | -3.76 |
| G50A C103U | -1.49 |
| G50A U78A G83A G100A A107C | ≤ -4.2 |
| G50A C96U G141U | -0.125 |
| G50A A142C | -3.12 |

| Variant | polymerase ribozyme fitness (log ratio) |
| --- | --- |
| G50A U77G G81A A91U A97G A122U | ≤ -4.2 |
| G50A G84A C95G U146C | -0.861 |
| A49U U61A A138C G140C | ≤ -4.2 |
| G50C A64G A89C G94C U101G A106U G133U | -4.12 |
| G50A U77A A106U A113G A121U C131U | ≤ -4.2 |
| G50A G59C U90G | ≤ -4.2 |
| G50A U78G | -4.06 |
| A49U G86A C87G A106C G136U A150C | ≤ -4.2 |
| G50A C57A C99A | -2.67 |
| G50A A115G | -2.49 |
| G50A G59A U101G | -0.0298 |
| G50A G86A C132U G143C C149G | ≤ -4.2 |
| G50A A91G C99U C103G | ≤ -4.2 |
| G50A U102A | -3.08 |
| A49U C116G C149U | -4.18 |
| G50A C57U C85U G128A | ≤ -4.2 |
| G50C C51A | -0.896 |
| G50A C54U C57A G84U C103G G124C G133U G141C | ≤ -4.2 |
| G50C A64U C93G U111G C116U G143U | ≤ -4.2 |
| G50A C69U A121U A137C | ≤ -4.2 |
